# In US20210380679A1 (INHIBRX BIOSCIENCES, published 2021):
# Numbering of substitutions follows the chain as printed.
# T1: human DLL3 (Delta-like ligand 3) (human, UniProt Q9NYJ7 27-618)
# T1 construct: endogenous on SHP-77 cells; also called cell-surface DLL3
# T1 sequence: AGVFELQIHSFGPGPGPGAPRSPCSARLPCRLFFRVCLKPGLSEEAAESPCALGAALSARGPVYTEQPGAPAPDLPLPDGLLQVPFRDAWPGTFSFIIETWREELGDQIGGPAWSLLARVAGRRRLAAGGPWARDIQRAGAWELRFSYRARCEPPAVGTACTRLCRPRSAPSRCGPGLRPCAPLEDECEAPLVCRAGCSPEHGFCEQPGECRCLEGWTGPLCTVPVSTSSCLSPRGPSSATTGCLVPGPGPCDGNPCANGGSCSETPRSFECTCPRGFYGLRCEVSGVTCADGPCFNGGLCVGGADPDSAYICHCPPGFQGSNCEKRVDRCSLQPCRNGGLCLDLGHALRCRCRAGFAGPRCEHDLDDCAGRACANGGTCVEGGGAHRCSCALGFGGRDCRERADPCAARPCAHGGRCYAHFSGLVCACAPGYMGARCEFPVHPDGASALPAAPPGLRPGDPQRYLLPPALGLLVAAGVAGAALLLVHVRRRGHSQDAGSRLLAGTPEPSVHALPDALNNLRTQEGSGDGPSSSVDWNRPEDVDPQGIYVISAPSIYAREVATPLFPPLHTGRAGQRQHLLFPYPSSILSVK
# B1: hz10D9v8 (Fc fusion)
# VHH: EVQLVESGGGEVQPGGSLRLSCAASGFTFSINAMGWYRQAPGKQRELVAGFTGDTNTIYAESVKGRFTISRDNAKNTVYLQMSSLRAEDTAVYYCAADVQLFSRDYEFYWGQGTLVTVKP
# notes: tested as VHH-human Fc; Fc not specified
# B2: hz10D9v11 (Fc fusion)
# VHH: B1 VHH with T28I, I31S, N32Y
# notes: as for B1
# B3: hz10D9v12 (Fc fusion)
# VHH: B1 VHH with F27S, T28I, N32Y
# notes: as for B1
# B4: hz10D9v9 (Fc fusion)
# VHH: B1 VHH with I31S, N32Y
# notes: as for B1
# B5: hz10D9v13 (Fc fusion)
# VHH: B1 VHH with T28I
# notes: as for B1
# B6: hz10D9v10 (Fc fusion)
# VHH: B1 VHH with F27S, T28I, I31S
# notes: as for B1
# B7: hz8E7v12 (Fc fusion)
# VHH: EVQLVESGGGEVQPGGSLRLSCGPSEIITSDKSVGWWRQAPGKGRELVAGISNVGSTNYAQSVKGRFTISRDNAKNTLYLQMSSLRAEDTAVYYCYARDFENEYWGQGTLVTVKP
# notes: as for B1
# B8: hz6C5v6 (Fc fusion)
# VHH: EVQLVESGGGEVQPGGSLRLSCAASEITFSDKTVGWYRQAPGKQRVLVAVISNVDATNYAESVKGRFTISRDNAKNTVYLQMSSLRAEDTAVYYCHARDFENEYWGQGTLVTVKP
# notes: as for B1
# B9: hz5A7v4 (Fc fusion)
# VHH: EVQLVESGGGEVQPGGSLRLSCAASGSDFSINAIGWYRQAPGKQRDLVAGFTGDGVTTYAESVKGRFTISRDNAKNTVYLQMSSLRAEDTAVYYCAADVKIGGDYEWFWGQGTLVTVKP
# notes: as for B1
# B10: hz5A7v5 (Fc fusion)
# VHH: B9 VHH with L47W
# notes: as for B1
# B11: hz5A7v6 (Fc fusion)
# VHH: B9 VHH with A40P, L47M
# notes: as for B1
# B12: 3C5 (Fc fusion)
# VHH: QVQLVQSGGGLVQAGGSLRLSCAASGSIFSINAMGWYRQPPGKQRELVAGFTGDGSTKYADSVKGRFTISRDNAKNTVYLQMNSLKPEDTAVYYCAADVQLLNSDYEFYWGQGTQVTVKP
# notes: as for B1
# B13: L6C5 (Fc fusion)
# VHH: QVQLQESGGGLVQTGGSLTLSCGASEITFSDKTVGWYRQAPGKQRVLVAVISNVDSTNYAHSVKGRFTISRDNAKNTVYLQMNSLKPEDTAVYYCHARDFENEYWGRGTQVTVKP
# notes: as for B1
# B14: hz5A8v2 (Fc fusion)
# VHH: EVQLVESGGGEVQPGGSLRLSCAASGSIFSINAMGWYRQAPGKQRELVAVVSSDGRTTVAPSVKGRFTISRDNAKNTVYLQMSSLRAEDTAVYYCGVREWYSDSDWRDYEGQGTLVTVKP
# notes: as for B1
# B15: hz5A8v8 (Fc fusion)
# VHH: B14 VHH with S104A
# notes: as for B1
# B16: hz5A8v3 (Fc fusion)
# VHH: B14 VHH with A40V, P41L
# notes: as for B1
# B17: hz5A8v1 (Fc fusion)
# VHH: B14 VHH with P61E
# notes: as for B1
# B18: hz5A8v7 (Fc fusion)
# VHH: B14 VHH with G55A
# notes: as for B1
# B19: hz5A8v4 (Fc fusion)
# VHH: B14 VHH with Y79S
# notes: as for B1
# B20: hz5A8v9 (Fc fusion)
# VHH: B14 VHH with D103E
# notes: as for B1
# B21: hz5A8v6 (Fc fusion)
# VHH: B14 VHH with D54E
# notes: as for B1
# B22: hz10E5v1 (Fc fusion)
# VHH: EVQLVESGGGEVQPGGSLRLSCAASGFTLDDYTIGWFRQAPGKEREGVSCISSSGGSTYYAESVKGRFTISRDNAKNTLYLQMSSLRAEDTAVYYCATYCPVVVGPELGYDYWGQGTLVTVKP
# notes: as for B1
# B23: hz10E5v3 (Fc fusion)
# VHH: B22 VHH with S84N, S85D
# notes: as for B1
# B24: hz10E5v4 (Fc fusion)
# VHH: B22 VHH with R87K, A88S, V93I
# notes: as for B1
# B25: hz10E5v5 (Fc fusion)
# VHH: B22 VHH with A40F
# notes: as for B1
# B26: hz10E5v2 (Fc fusion)
# VHH: B22 VHH with L79V, Y80W
# notes: as for B1
# B27: L10E5 (Fc fusion)
# VHH: EVQLVQSGGGLVQPGGSLRLSCAASGFTLDDYTIGWFRQFPGKEREGVSCISSSGGSTYYADSVKGRFTISRDNAKNTVWLQMNDLKSEDTAIYYCATYCPVVVGPELGYDYWGQGTQVTVKP
# notes: as for B1
# B28: hz6C5v1 (Fc fusion)
# VHH: B8 VHH with A56S, V78L
# notes: as for B1
# B29: hz6F1v3 (Fc fusion)
# VHH: B8 VHH with T28I, A56S, E61Q, H96Y, N102S
# notes: as for B1
# B30: hz6C5v3 (Fc fusion)
# VHH: B8 VHH with A56S, E61H
# notes: as for B1
# B31: hz6C5v2 (Fc fusion)
# VHH: B8 VHH with A56S
# notes: as for B1
# B32: hz8E7v3 (Fc fusion)
# VHH: B7 VHH with G44Q, E46N
# notes: as for B1
# B33: hz6F1v5 (Fc fusion)
# VHH: B8 VHH with T28I, A56S, H96Y, N102S, Q107R, L110Q
# notes: as for B1
# B34: hz6F1v2 (Fc fusion)
# VHH: B8 VHH with T28I, A56S, H96Y, N102S
# notes: as for B1
# B35: hz6F1v1 (Fc fusion)
# VHH: B8 VHH with T28I, A56S, V78L, H96Y, N102S
# notes: as for B1
# B36: hz8E7v2 (Fc fusion)
# VHH: B7 VHH with G23A, P24A, G44Q, E46N
# notes: as for B1
# B37: hz6C5v5 (Fc fusion)
# VHH: B8 VHH with D55E, A56S
# notes: as for B1
# B38: hz6C5v4 (Fc fusion)
# VHH: B8 VHH with A23G, A56S
# notes: as for B1
# B39: hz6F1v7 (Fc fusion)
# VHH: B8 VHH with T28I, H96Y, N102S
# notes: as for B1
# B40: hz8E7v1 (Fc fusion)
# VHH: B7 VHH with G23A, P24A, G44Q, E46N, Q61E
# notes: as for B1
# B41: hz8E7v4 (Fc fusion)
# VHH: B7 VHH with G23A, P24A, G44Q, E46N, Y79F
# notes: as for B1
# B42: hz6F1v4 (Fc fusion)
# VHH: B8 VHH with A23G, T28I, A56S, H96Y, N102S
# notes: as for B1
# B43: hz6F1v6 (Fc fusion)
# VHH: B8 VHH with T28I, D55E, A56S, H96Y, N102S
# notes: as for B1
# Molecular target: T1, human DLL3 (Delta-like ligand 3)
# Assay: flow cytometry, SHP-77 cells
row,binding result,Binder
1,binds,B1
2,binds,B2
3,binds,B3
4,binds,B4
5,binds,B5
6,binds,B6
7,binds,B7
8,binds,B8

# Molecular target: T1, human DLL3 (Delta-like ligand 3)
# Assay: flow cytometry, sdAb-Fc titrated on SHP-77 cells (DLL3 positive), APC anti-human Fc secondary
# Procedure: FIGS. 2A-L set forth a series of graphs depicting the ability of sdAb and humanized variants thereof targeting DLL3 to bind cell surface DLL3.
# Specificity and relative affinity were assessed for purified sdAb-Fcs on DLL3-expressing cells. […] A titration series of the fusion protein was incubated with the DLL3-expressing cell lines (approximately 2.5×10⁴ to 5×10⁴ cells/well) for 30 minutes at 4 degrees Celsius in FACS Buffer (PBS 1% BSA, 0.1% NaN₃ pH 7.4) in 96-well plates. Following three wash steps in FACS buffer, an APC-conjugated anti-human Fcγ specific secondary antibody (Jackson ImmunoResearch) was added and incubated for 30 minutes at 4 degrees Celsius. Following three additional wash steps in FACS buffer bound antibody was detected via flow cytometry (IQue Intellicyte).
binding result,EC50 (read off the curve) [nM],Binder
binds,–,B9
binds,–,B10
binds,–,B11
binds,–,B12
binds,–,B13
binds,–,B14
binds,–,B15
binds,–,B16
–,~2,B17
binds,–,B18
binds,–,B19
binds,–,B20
binds,–,B21
–,~5,B22
–,~7,B23
–,~10,B24
–,~7,B25
–,~7,B26

binding result,EC50 (read off the curve) [nM],Binder
–,~3,B27
–,~2,B28
binds,–,B29
binds,–,B30
binds,–,B31
binds,–,B32
binds,–,B33
binds,–,B34
–,~0.5,B35
binds,–,B36
binds,–,B37
binds,–,B38
binds,–,B39
binds,–,B40
binds,–,B41
binds,–,B42
binds,–,B43
